The values that follow come from the DeepSol protein solubility set.

A short description of the data set: soluble on expression in E. coli; label from the status in PepcDB or PDB records.
As to “MGSDKIHHHHHHMLKHADIWAAIDALARDHGLTASALARKAGLDPTTFNKSKRVTREGKPRWPSTESVAKVLEATGATMTAFVGYIEDTAQARQTANTIPLIGFAQAGDCGYFDDAGYPVGGSWDEIPFPEIGDPHAYALEVSGDSMEPLYRDGDVVIVSPAAGVRRGDRVVVRTTEGEVMVKQLVRQTAKRIELASINPAHPGRSLATEEVAWIARILWSSQ”, the “soluble on expression in E. coli” value is on record as “not soluble”.

In the case of “MGSDKIHHHHHHMEDTQSVLQEYGLTAQFIEPVSPLVWKVYTDYGIFALKKLKEGRGKHFTDHMVAIEEKGFRSFVPVYRTNSGEFFSAGIQYGDIYYLMPWLQFDQEEERDQKHAYLFRETARLHERTAQELKVRRDEIERYYGQTKKKWEQDKIFYEQFVDRAEKEWYLSPFELQAITYFSETISAVNFALERLEDWYESAKEKDVSRVVMNHGSLSIHHFLYNDAGTGYFTNFERASVGPPQNDLLGFYTKMFRGFPKACPECVEWFYGYTKSFPLREAEVSLFLSYMAYPAAMYKVLNGYQTGKRQHEKEECTQLLKAYWQMKNIEPFVMKIHQIEQEKKFQAENESTS”, the “soluble on expression in E. coli” value is reported as “not soluble”.

Take “MGSDKIHHHHHHMLFSAPPVLAPVVPGKALEFPQDFGAHNDFRIEWWYVTGWLETPTGKPLGFQITFFRTATEIDRDNPSHFAPDQLIIAHVALSDPAIGKLQHDQKIARAGFDLAYARTGNTDVKLDDWIFVRETDGRYRTRIEAEDFTLTFILTPSQPLMLQGENGFSRKGPGAPQASYYYSEPHLQVSGIINRQGEDIPVTGTAWLDREWSSEYLDPNAAGWDWISANLDDGSALMAFQIRGKDDSKIWAYAALRDASGHTRLFTPDQVSFHPIRTWRSARTQAVYPVATRVLTGETEWQITPLMDDQELDSRASAGAVYWEGAVTFTRDGQPAGRGYMELTGYVRPLSM”: the “soluble on expression in E. coli” value is reported as “not soluble”.

With “SKLYDINNEIFEDLGAEKRELIQPNDVPQLLKDAIVSVEDRRFYKHIGVDPIRIIGSALSNVKNGGLQGGSTLTQQLIKLSYFSTKESDQTLKRKAQEAWMAVRLEREKSKEEILTYYINKVYMANGFYGMETAAENYYGKHLSELDLPQTALLAGMPQAPNSYDPYTKP”, the “soluble on expression in E. coli” value was “not soluble”.

As for “MFTCKVNEHITIRLLEPKDAERLAELIIQNQQRLGKWLFFAENPSSADTYRETIIPDWRRQYADLNGIEAGLLYDGSLCGMISLHNLDQVNRKAEIGYWIAKEFEGKGIITAACRKLITYAFEELELNRVAICAAVGNEKSRAVPERIGFLEEGKARDGLYVNGMHHDLVYYSLLKREWEGEKLEHHHHHH”, the “soluble on expression in E. coli” value is reported as “not soluble”.

On to “MSLATFEKQKIEQAIGSIQGALGVLEKGQMTEIMPPKRIQALPIQQNVDTPEAINAFASMITEYSEMTKISDGPAVKMEEAEDGFILSIPSELLFESGSATITNKEGILFLKRTALEINKLSNDMHIKVIGHTDNDRLRPTATYKDNWELSIARGVNVAKMLLEERVNPARISAGGNGEFDPVASNATPEGKAKNRRVDLYFFSVSKNEEEIKKSQKNSEGHHHHHH”, for which the “soluble on expression in E. coli” value is “soluble”.

Regarding “MGSDKIHHHHHHMVLSKFMPHNPKFAAKFAEAAQNAHATAQALVDLLENYTDVERKVQRVLDFEHEGDRITSEVTNLLAESFIVPFDREDILALNAELDDLVDDMEEAASKLSLYRIERPLPQMAQLARVVEQQCALLAQGMPLIEDGRMVDELRQLSQKIRALEDEGDRISDEVARHLYDGVTEVPQMIVAMRSGEILNLIENASDQAQRIARTVESILLKNA”, the “soluble on expression in E. coli” value is reported as “not soluble”.

On to “MSLLRIIDTETCGLQGGIVEIASVDVIDGKIVNPMSHLVRPDRPISPQAMAIHRITEAMVADKPWIEDVIPHYYGSEWYVAHNASFDRRVLPEMPGEWICTMKLARRLWPGIKYSNMALYKTRKLNVQTPPGLHHHRALYDCYITAALLIDIMNTSGWTAEQMADITGRPSLMTTFTFGKYRGKAVSDVAERDPGYLRWLFNNLDSMSPELRLTLKHYLENTEGHHHHHH”, for which the “soluble on expression in E. coli” value is “soluble”.

Regarding “GMLFSIQTCPCQINPALNAVSTPLLYQDCCQPYHDGLYNQEVEDSDAIRADTAEHLMRTRYSAFVLVKPEYIVKTTLPAQQDLLDIKAIENWAKETDWAGLEVVAHTPKLSKRHAQVEFKAYFKTPDGLQAHHELSTFVKIKNKANSDASWYFLDPTVSMSVTQKQPCICGSGEKFKRCCGMYI”, the “soluble on expression in E. coli” value was “soluble”.

“MGSDKIHHHHHHMRRKIPSSASLQAFDAAARHGNFARAAEELSLTEGAISRQIARLEALLNCKLFDRMGSRVKLNPVGAHYAHHVRETLDRLERDTQYIMGMPEGSKSLDIAVLPTFSNRWLIPRLSGFNSLFPDITLNIAARTDPFILPGSGFDAVIHFEHSAWTGMRMQFLFQENLLPVCNPALLTNNDVNRQLNELPRIHRRQNPEAWHHYARESGIRLDNPAQGVRYDLHEMTIAAVIAGHGVALVPRMYVENELSCGMLVSPWPASDCLSKKFCLVKPMETGINEDALESFERWLLAEMNTLTSLNAER”: the “soluble on expression in E. coli” value is on record as “not soluble”.

Turning to “MGSDKIHHHHHHMANSGQIRVGIGGWNFEPWEGTFYPDDLPKKRQLEFAGKELRTIEVNGTYYSSQKPATFAKWAAEVPDGFIFSLKASRFVTNRRVLSEAGESMERFLTQGLTELGDRLGPILWQFAPTKKFDAEDFEGFLKLLPEKQDGLKLRHVVEVRNPSFQVPDFVKLIEKYKVAVVLAEHADYPMIADVTGDFVYARLQKGSDEVKTCYPPKDLDRWAERLKTFAAGGEPDDLEKAAPERQPETAPRDVFAFFITSGKVNAPNGARELQKRVG”, the “soluble on expression in E. coli” value is given as “not soluble”.

Regarding “GPGSMRTQTFPQQPRAPGMLPHLSNGAAAPAAPQVPAVQEHTDVVHDTQFDYYGLQLATASSDRTIGIHVARAGAPLNRVATLTGHEGPVWMVSWAHPRFGNLLASASYDQKAIIWKEIRQGAPKWTPVHVIDIHHGSVNAVQWAPEEYGPVVATASSDGTVAITAYRDGCWQPSVKLSNNSNQIAHAMGATSVTFAPFKSELADHVVVASGGCDGHVRLWVSASSPERGLGFELHQVIEAHADWVRDVAFCPTSPASRFVILASCGQDKTVVMYRKPWDQLCAETSEGVSQATEWERSVIEFAEPVWRLSWAPSGEMLVVTNAKSEVFVLREGVDFTEPWIKLPLKDFQQ”, the “soluble on expression in E. coli” value is on record as “not soluble”.

Turning to “MAPWKIEEVKTLKGLIKSKPVVAIVDMMDVPAPQLQEIRDKIRDKVKLRMSRNTLIIRALKEAAEELNNPKLAELANYVERGAAILVTDMNPFKLYKLLEENKSPAPVRGGQIAPCDIKVEKGSTGMPPGPFLGELKSVGIPAAIEKGKIAIKEDKVVVKKGEVVSPKLAAVLDRLGIKPIKVGLNILAVYEDGIIYTPDVLKVDEEKLLADI”, the “soluble on expression in E. coli” value is “soluble”.

Take “NYAPAVAEAFYRGIPLVAVTADRPAEWIDQDEGQTIRQEGAMAGFVKSYCSLRAEFDTSASAWYANRRLNEVLNHALMPRRGPVHINMSFCEPLYGTSSGYSGKERAITFVRERQELPEEVWDMLVKRFLEAPRVMIVAGFYPPDEDVSAALQDICKFPHTVLFAESLSNIRTDTGICTADRVLAAAGEDESLYPELLISFGGSLISRMLKTFLRRAKPAEHWGIDERFPAPDTFCALTHHICTGASGFWKEFAGRLKDKAPESLSPEGISYAGSWQKIKRKADLLHRTFMADAGWSDLKAFEVILRHIPHDAALHAANSTPVRYLQLFEHAHYAGGEWSNRGTNGIEGATSTAMGFSE”: the “soluble on expression in E. coli” value is given as “not soluble”.

As to “MAHHHHHHMFSRGAAATAMAKVSRLVSPRLRIIHRDYLTRRGGRTHQRCSAVAVDYTPTYFATYKSDPGQCPRLIDAEAVHGDEQAFWSARRDFYRGGASRSYYPAWDRQAQALIMLTREVPRIPQEAAFRLFTLGLKMMLLPRLVAGVELMLPSWVTMNAESVLNEGLEGKVAEADGDGKATGAAADAAALPSASSAGANEDSGSANAEKR”, the “soluble on expression in E. coli” value is given as “soluble”.

For the sequence “MDSVMRKSLFLLLPLVVTNAHAVYVDVRHEYLDDSKANYDRAYISHRFANGVGFAIEAISKSGGDDTNKAFNDLETQGNEYTISYQFKTGDVAWQPGFVLETGNGYSTYKPYFRATWTLNESWWVGARYRFEYVRRSSDIRDDDTINRMDVWAGYKWNNFDWTIEGIYKKADKYDLYDGGKDNYEYNFRTAYIIDQWSPFVEVGNVSVNSNSDERQTRFRVGIGYTF”, the “soluble on expression in E. coli” value is reported as “not soluble”.

Consider “MSGALFLIPAPLGDETVAWLPEGERAKVVHITHFVVEAEKTARKHLKALGVTTPIRELSMSTLNEHTKETDVAALLAPLQAGHDVGLISEAGCPAVADPGAQLVALAHQRDIRVEPLIGPSSILLALMASGANGQCFAFHGYLPVDAAEKSKLVKELEQRSRKHNETQLFIETPYRNNALLAQLRETLAPSTRLAVACDLTLPTQTIVSHRVQDWPQNPPDLHKRPAIFVIHAALEHHHHHH”, for which the “soluble on expression in E. coli” value was “soluble”.

“MGSDKIHHHHHHMSYLLRKPQSHEVSNGVKLVHEVTTSNSDLTYVEFKVLDLASGSSYTEELKKQEICIVAVTGKITVTDHESTFENIGTRESYFERKPTDSVYISNDRAFEITAVSDARVALCYSPSEKQLPTKLIKAEDNGIEHRGQFSNKRTVHNILPDSDPSANSLLVVEVYTDSGNWSSYPPHKHDQDNLPEESFLEETYYHELDPGQGFVFQRVYTDDRSIDETMTVGNENVVIVPAGYHPVGVPDGYTSYYLNVMAGPTRKWKFYNDPAHEWILER”: the “soluble on expression in E. coli” value is on record as “not soluble”.

Regarding “MKYEVVITSGNSNQAPIGAFFKGDFVTLHLYGGSHTFENLQKDGFYILNTCSPYLIAKSVLDDAGDYEYLDNDGIKIPYLKDSYKIELIEIKSRKIVETKNEFGSSKLMIVEGKPIFEKILNCNTSAYNRADGAVVEMAVLYSRKNMISKEEINDEITRLMKIIKKVGSKNHIELAKKLGV”, the “soluble on expression in E. coli” value is on record as “soluble”.

With “ADVSAAVGATGQSGMTYRLGLSWDWDKSWWQTSTGRLTGYWDAGYTYWEGGDEGAGKHSLSFAPVFVYEFAGDSIKPFIEAGIGVAAFSGTRVGDQNLGSSLNFEDRIGAGLKFANGQSVGVRAIHYSNAGLKQPNDGIESYSLFYKIPI”, the “soluble on expression in E. coli” value was “soluble”.

With “MSLSIASADRWSDPMPTTATTFEEFRQRVDYSLLQALKPDPEATSDGNDHRPRPVFSGHWVPVRPTPIPEPKYVAHSFILFAELGISDDLAHNSDFTRLFSGDASVAAEPMHSWGWATGYALSIYGTEYIQQCPFGTGNGYGDGRAMSIVEGVFEGQRWEMQLKGGGPTPYCRGADGRAVLRSSVREFLAQEFMHALGVPTSRSLTLYRSEAETVRRPWYSDHSRSFDPDVMVDNQAAISTRVAPSFLRVGQIELFARRARDNAHPNAHDELRLIVQHLIDRNYRAEIDATLPFHQQVLELARLFRGRLTALVANWMRVGYCQGNFNSDNCAAGGYTLDYGPFGFCELFDPRFQPWTGGGAHFSFFNQPAAAEANYRMFWRSLRTLLEGDDAAQRELDQLNEGFAVAMQQQLEAMWASKLALPAYDETLVTELLQLLVAAKADYTKAFRLLSTIPDHVAELHPSFYLPSSEDLDQRWQTWLQRWRERITANGDLEETSAAMRRVNPAITWREWLIAPAYQQAEQGDNSLVLELQTLFSSPYSAPSTELAARYDQLRPQQFFSAGGIAHYSCSSEGHHHHHH”, the “soluble on expression in E. coli” value was “not soluble”.

Consider “MNSHDGSNFSNKFSAHKDVVEDLLRKDTVGLVTFQDFRARREYLERCAVAEAACQNASRRAEELETKKKRVKRANLSRLSFGDSLEDQEENSVEFAKITRFASSKKANGVGFNTSGQDIVKEPDVFSPKEEGFFGKQNRKIGMDPGVDTSFLPDRDREQEERLERERLKQQWLSEQERVKNEEIDIIYSIWDGRGQRKLLSCKKGTTIAKFLSIVQQKVSTLKHCKVEDLMFIKEDMIIPHHLSFYDLISMKARGKNGSLFCFDVHEDIRIRNDASVEKDDSHAAKVVERRWYERNKHIYPASMWEVFDVSKNYGRVQKDFFGN”, for which the “soluble on expression in E. coli” value was “soluble”.
